In article PMC6201732 (Protein Science : A Publication of the Protein Society, 2018):

B1: Chlamydia trachomatis Serovar E native major outer membrane protein (nMOMP), from adherent HeLa 229 cells (natural protein)
chain: LPVGNPAEPSLMIDGILWEGFGGDPCDPCTTWCDAISMRMGYYGDFVFDRVLKTDVNKEFQMGDKPTSTTGNATAPTTLTARENPAYGRHMQDAEMFTNAACMALNIWDRFDVFCTLGASSGYLKGNSASFNLVGLFGDNENQSTVKTNSVPNMSLDQSVVELYTDTAFSWSVGARAALWECGCATLGASFQYAQSKPKVEELNVLCNAAEFTINKPKGYVGQEFPLALIAGTDAATGTKDASIDYHEWQASLALSYRLNMFTPYIGVKWSRASFDADTIRIAQPKSATAIFDTTTLNPTIAGAGDVKASAEGQLGDTMQIVSLQLNKMKSRKSCGIAVGTTIVDADKYAVTVETRLIDERAAHVNAQFRF
B2: Chlamydia trachomatis Serovar E native major outer membrane protein (nMOMP), from HeLa suspension cells (natural protein)
chain: B1 chain
B3: Chlamydia trachomatis Serovar E native major outer membrane protein (nMOMP), from CHO suspension cells (natural protein)
chain: B1 chain
B4: Chlamydia muridarum native major outer membrane protein (nMOMP), from adherent HeLa 229 cells (natural protein)
chain: LPVGNPAEPSLMIDGILWEGFGGDPCDPCTTWCDAISLRLGYYGDFVFDRVLKTDVNKQFEMGAAPTGDADLTTAPTPASRENPAYGKHMQDAEMFTNAAYMALNIWDRFDVFCTLGATSGYLKGNSAAFNLVGLFGRDETAVAADDIPNVSLSQAVVELYTDTAFAWSVGARAALWECGCATLGASFQYAQSKPKVEELNVLCNAAEFTINKPKGYVGQEFPLNIKAGTVSATDTKDASIDYHEWQASLALSYRLNMFTPYIGVKWSRASFDADTIRIAQPKLETSILKMTTWNPTISGSGIDVDTKITDTLQIVSLQLNKMKSRKSCGLAIGTTIVDADKYAVTVETRLIDERAAHVNAQFRF
B5: Chlamydia trachomatis Serovar F native major outer membrane protein (nMOMP), from adherent HeLa 229 cells (natural protein)
chain: LPVGNPAEPSLMIDGILWEGFGGDPCDPCTTWCDAISMRMGYYGDFVFDRVLKTDVNKEFEMGEALAGASGNTTSTLSKLVERTNPAYGKHMQDAEMFTNAACMTLNIWDRFDVFCTLGATSGYLKGNSASFNLVGLFGDGVNATKPAADSIPNVQLNQSVVELYTDTTFAWSVGARAALWECGCATLGASFQYAQSKPKIEELNVLCNAAEFTINKPKGYVGKEFPLDLTAGTDAATGTKDASIDYHEWQASLSLSYRLNMFTPYIGVKWSRASFDSDTIRIAQPRLVTPVVDITTLNPTIAGCGSVAGANTEGQISDTMQIVSLQLNKMKSRKSCGIAVGTTIVDADKYAVTVETRLIDERAAHVNAQFRF
B6: Chlamydia trachomatis Serovar D native major outer membrane protein (nMOMP), from adherent HeLa 229 cells (natural protein)
chain: LPVGNPAEPSLMIDGILWEGFGGDPCDPCATWCDAISMRVGYYGDFVFDRVLKTDVNKEFQMGAKPTTDTGNSAAPSTLTARENPAYGRHMQDAEMFTNAACMALNIWDRFDVFCTLGATSGYLKGNSASFNLVGLFGDNENQKTVKAESVPNMSFDQSVVELYTDTTFAWSVGARAALWECGCATLGASFQYAQSKPKVEELNVLCNAAEFTINKPKGYVGKEFPLDLTAGTDAATGTKDASIDYHEWQASLALSYRLNMFTPYIGVKWSRASFDADTIRIAQPKSATAIFDTTTLNPTIAGAGDVKTGAEGQLGDTMQIVSLQLNKMKSRKSCGIAVGTTIVDADKYAVTVETRLIDERAAHVNAQFRF

Biological target: the molecule itself
Assay: SEC-MALS

Row | Protein | stoichiometry N
1 | B1 | 2.52
2 | B2 | 2.3
3 | B3 | 2.27
4 | B4 | 2.59
5 | B5 | 2.85
6 | B6 | 2.8
